Here are results for one molecule from publication PMC3857783, “Human Fanconi Anemia Complementation Group A Protein Stimulates the 5’ Flap Endonuclease Activity of FEN1” (PLoS ONE, 2013).

The target of this test is Flap endonuclease 1 (FEN1) (human (endogenous in RA3087 cells), UniProt P39748-1 1-380). Put plainly: cell-based or functional assay.
Flap endonuclease 1 (FEN1), sequence (P39748 whole entry): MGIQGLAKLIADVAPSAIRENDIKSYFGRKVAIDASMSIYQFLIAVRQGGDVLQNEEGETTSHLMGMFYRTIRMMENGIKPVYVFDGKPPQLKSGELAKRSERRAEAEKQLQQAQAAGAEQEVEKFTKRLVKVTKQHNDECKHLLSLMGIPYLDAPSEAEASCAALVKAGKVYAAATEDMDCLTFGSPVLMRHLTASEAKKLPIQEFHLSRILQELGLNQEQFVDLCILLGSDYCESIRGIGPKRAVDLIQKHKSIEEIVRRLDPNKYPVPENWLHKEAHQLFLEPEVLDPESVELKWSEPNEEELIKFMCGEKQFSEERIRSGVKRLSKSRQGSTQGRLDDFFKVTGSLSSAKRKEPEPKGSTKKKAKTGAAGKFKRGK

B1: FLAG-FANCA (human Fanconi anemia complementation group A protein) (natural protein, UniProt O15360-1 1-1455, looked up)
chain: MSDSWVPNSASGQDPGGRRRAWAELLAGRVKREKYNPERAQKLKESAVRLLRSHQDLNALLLEVEGPLCKKLSLSKVIDCDSSEAYANHSSSFIGSALQDQASRLGVPVGILSAGMVASSVGQICTAPAETSHPVLLTVEQRKKLSSLLEFAQYLLAHSMFSRLSFCQELWKIQSSLLLEAVWHLHVQGIVSLQELLESHPDMHAVGSWLFRNLCCLCEQMEASCQHADVARAMLSDFVQMFVLRGFQKNSDLRRTVEPEKMPQVTVDVLQRMLIFALDALAAGVQEESSTHKIVRCWFGVFSGHTLGSVISTDPLKRFFSHTLTQILTHSPVLKASDAVQMQREWSFARTHPLLTSLYRRLFVMLSAEELVGHLQEVLETQEVHWQRVLSFVSALVVCFPEAQQLLEDWVARLMAQAFESCQLDSMVTAFLVVRQAALEGPSAFLSYADWFKASFGSTRGYHGCSKKALVFLFTFLSELVPFESPRYLQVHILHPPLVPGKYRSLLTDYISLAKTRLADLKVSIENMGLYEDLSSAGDITEPHSQALQDVEKAIMVFEHTGNIPVTVMEASIFRRPYYVSHFLPALLTPRVLPKVPDSRVAFIESLKRADKIPPSLYSTYCQACSAAEEKPEDAALGVRAEPNSAEEPLGQLTAALGELRASMTDPSQRDVISAQVAVISERLRAVLGHNEDDSSVEISKIQLSINTPRLEPREHMAVDLLLTSFCQNLMAASSVAPPERQGPWAALFVRTMCGRVLPAVLTRLCQLLRHQGPSLSAPHVLGLAALAVHLGESRSALPEVDVGPPAPGAGLPVPALFDSLLTCRTRDSLFFCLKFCTAAISYSLCKFSSQSRDTLCSCLSPGLIKKFQFLMFRLFSEARQPLSEEDVASLSWRPLHLPSADWQRAALSLWTHRTFREVLKEEDVHLTYQDWLHLELEIQPEADALSDTERQDFHQWAIHEHFLPESSASGGCDGDLQAACTILVNALMDFHQSSRSYDHSENSDLVFGGRTGNEDIISRLQEMVADLELQQDLIVPLGHTPSQEHFLFEIFRRRLQALTSGWSVAASLQRQRELLMYKRILLRLPSSVLCGSSFQAEQPITARCEQFFHLVNSEMRNFCSHGGALTQDITAHFFRGLLNACLRSRDPSLMVDFILAKCQTKCPLILTSALVWWPSLEPVLLCRWRRHCQSPLPRELQKLQEGRQFASDFLSPEAASPAPNPDWLSAAALHFAIQQVREENIRKQLKKLDCEREELLVFLFFFSLMGLLSSHLTSNSTTDLPKAFHVCAAILECLEKRKISWLALFQLTESDLRLGRLLLRVAPDQHTRLLPFAFYSLLSYFHEDAAIREEAFLHVAVDMYLKLVQLFVAGDTSTVSPPAGRSLELKGQGNPVELITKARLFLLQLIPRCPKKSFSHVAELLADRGDCDPEVSAALQSRQQAAPDADLSQEPHLF
As to B1, the “stimulation of FEN1 5' flap endonuclease activity on the 15-nt DNA flap (2 nM substrate, 0.2 nM purified FEN1) by purified His6-FANCA at 2.5, 5, 10 nM; fold over FEN1 alone” value was found to be 4.5 fold and the “stimulation of FEN1 5' flap endonuclease activity on the 15-nt RNA flap (2 nM substrate, 0.1 nM purified FEN1) by purified His6-FANCA at 2.5, 5, 10 nM; fold over FEN1 alone” value stood at 8 fold.
